Test results published in PMC7367873, “Dissecting the sequence determinants for dephosphorylation by the catalytic subunits of phosphatases PP1 and PP2A” (Nature Communications, 2020).

Tests used:
[1] = test system: GFP-14-3-3β and its binding proteins; assay: GFP-14-3-3β co-IP with LC-MS/MS label-free quantification, untreated versus PP1c-treated; set-up: species or system human; details: log2 difference; pairwise comparison PP1 vs untreated, label-free quantification, 3 replicates each
GFP-14-3-3β = GFP-14-3-3β co-IP with LC-MS/MS, untreated GFP-14-3-3β versus GFP control (14-3-3 interactome); type: binding, human; details: log2 difference; pairwise comparison untreated vs GFP, label-free quantification, 3 replicates each

Molecule	Difference (log2), PP1 vs untreated [1]	Difference (log2), untreated vs GFP (GFP-14-3-3β)
CKAP4 (protein, UniProt Q07065 1-602, looked up) Cytoskeleton-associated …: MPSAKQRGSKGGHGAASPSEKGAHPSGGADDVAKKPPPAPQQPPPPPAPHPQQHPQQHPQNQAHGKGGHRGGGGGGGKSSSSSSASAAAAAAAASSSASCSRRLGRALNFLFYLALVAAAAFSGWCVHHVLEEVQQVRRSHQDFSRQREELGQGLQGVEQKVQSLQATFGTFESILRSSQHKQDLTEKAVKQGESEVSRISEVLQKLQNEILKDLSDGIHVVKDARERDFTSLENTVEERLTELTKSINDNIAIFTEVQKRSQKEINDMKAKVASLEESEGNKQDLKALKEAVKEIQTSAKSREWDMEALRSTLQTMESDIYTEVRELVSLKQEQQAFKEAADTERLALQALTEKLLRSEESVSRLPEEIRRLEEELRQLKSDSHGPKEDGGFRHSEAFEALQQKSQGLDSRLQHVEDGVLSMQVASARQTESLESLLSKSQEHEQRLAALQGRLEGLGSSEADQDGLASTVRSLGETQLVLYGDVEELKRSVGELPSTVESLQKVQEQVHTLLSQDQAQAARLPPQDFLDRLSSLDNLKASVSQVEADLKMLRTAVDSLVAYSVKIETNENNLESAKGLLDDLRNDLDRLFVKVEKIHEKV	1.432	-0.6332
SLC25A13 (protein, UniProt Q9UJS0 2-675, looked up) Electrogenic …: AAAKVALTKRADPAELRTIFLKYASIEKNGEFFMSPNDFVTRYLNIFGESQPNPKTVELLSGVVDQTKDGLISFQEFVAFESVLCAPDALFMVAFQLFDKAGKGEVTFEDVKQVFGQTTIHQHIPFNWDSEFVQLHFGKERKRHLTYAEFTQFLLEIQLEHAKQAFVQRDNARTGRVTAIDFRDIMVTIRPHVLTPFVEECLVAAAGGTTSHQVSFSYFNGFNSLLNNMELIRKIYSTLAGTRKDVEVTKEEFVLAAQKFGQVTPMEVDILFQLADLYEPRGRMTLADIERIAPLEEGTLPFNLAEAQRQKASGDSARPVLLQVAESAYRFGLGSVAGAVGATAVYPIDLVKTRMQNQRSTGSFVGELMYKNSFDCFKKVLRYEGFFGLYRGLLPQLLGVAPEKAIKLTVNDFVRDKFMHKDGSVPLAAEILAGGCAGGSQVIFTNPLEIVKIRLQVAGEITTGPRVSALSVVRDLGFFGIYKGAKACFLRDIPFSAIYFPCYAHVKASFANEDGQVSPGSLLLAGAIAGMPAASLVTPADVIKTRLQVAARAGQTTYSGVIDCFRKILREEGPKALWKGAGARVFRSSPQFGVTLLTYELLQRWFYIDFGGVKPMGSEPVPKSRINLPAPNPDHVGGYKLAVATFAGIENKFGLYLPLFKPSVSTSKAIGGGP	1.412	0.4406
FAM83H (protein, UniProt Q6ZRV2 1-1179, looked up) Protein FAM83H: MARRSQSSSQGDNPLAPGYLPPHYKEYYRLAVDALAEGGSEAYSRFLATEGAPDFLCPEELEHVSRHLRPPQYVTREPPEGSLLDVDMDGSSGTYWPVNSDQAVPELDLGWPLTFGFQGTEVTTLVQPPPPDSPSIKDEARRMIRSAQQVVAVVMDMFTDVDLLSEVLEAAARRVPVYILLDEMNAQHFLDMADKCRVNLQHVDFLRVRTVAGPTYYCRTGKSFKGHVKEKFLLVDCAVVMSGSYSFMWSFEKIHRSLAHVFQGELVSSFDEEFRILFAQSEPLVPSAAALARMDAYALAPYAGAGPLVGVPGVGAPTPFSFPKRAHLLFPPPREEGLGFPSFLDPDRHFLSAFRREEPPRMPGGALEPHAGLRPLSRRLEAEAGPAGELAGARGFFQARHLEMDAFKRHSFATEGAGAVENFAAARQVSRQTFLSHGDDFRFQTSHFHRDQLYQQQYQWDPQLTPARPQGLFEKLRGGRAGFADPDDFTLGAGPRFPELGPDGHQRLDYVPSSASREVRHGSDPAFAPGPRGLEPSGAPRPNLTQRFPCQAAARPGPDPAPEAEPERRGGPEGRAGLRRWRLASYLSGCHGEDGGDDGLPAPMEAEAYEDDVLAPGGRAPAGDLLPSAFRVPAAFPTKVPVPGPGSGGNGPEREGPEEPGLAKQDSFRSRLNPLVQRSSRLRSSLIFSTSQAEGAAGAAAATEKVQLLHKEQTVSETLGPGGEAVRSAASTKVAELLEKYKGPARDPGGGAGAITVASHSKAVVSQAWREEVAAPGAVGGERRSLESCLLDLRDSFAQQLHQEAERQPGAASLTAAQLLDTLGRSGSDRLPSRFLSAQSHSTSPQGLDSPLPLEGSGAHQVLHNESKGSPTSAYPERKGSPTPGFSTRRGSPTTGFIEQKGSPTSAYPERRGSPVPPVPERRSSPVPPVPERRGSLTLTISGESPKAGPAEEGPSGPMEVLRKGSLRLRQLLSPKGERRMEDEGGFPVPQENGQPESPRRLSLGQGDSTEAATEERGPRARLSSATANALYSSNLRDDTKAILEQISAHGQKHRAVPAPSPGPTHNSPELGRPPAAGVLAPDMSDKDKCSAIFRSDSLGTQGRLSRTLPASAEERDRLLRRMESMRKEKRVYSRFEVFCKKEEASSPGAGEGPAEEGTRDSKVGKFVPKILGTFKSKK	1.455	-1.013
SRPK1 (protein, UniProt Q96SB4 1-655, looked up) SRSF protein kinase 1: MERKVLALQARKKRTKAKKDKAQRKSETQHRGSAPHSESDLPEQEEEILGSDDDEQEDPNDYCKGGYHLVKIGDLFNGRYHVIRKLGWGHFSTVWLSWDIQGKKFVAMKVVKSAEHYTETALDEIRLLKSVRNSDPNDPNREMVVQLLDDFKISGVNGTHICMVFEVLGHHLLKWIIKSNYQGLPLPCVKKIIQQVLQGLDYLHTKCRIIHTDIKPENILLSVNEQYIRRLAAEATEWQRSGAPPPSGSAVSTAPQPKPADKMSKNKKKKLKKKQKRQAELLEKRMQEIEEMEKESGPGQKRPNKQEESESPVERPLKENPPNKMTQEKLEESSTIGQDQTLMERDTEGGAAEINCNGVIEVINYTQNSNNETLRHKEDLHNANDCDVQNLNQESSFLSSQNGDSSTSQETDSCTPITSEVSDTMVCQSSSTVGQSFSEQHISQLQESIRAEIPCEDEQEQEHNGPLDNKGKSTAGNFLVNPLEPKNAEKLKVKIADLGNACWVHKHFTEDIQTRQYRSLEVLIGSGYNTPADIWSTACMAFELATGDYLFEPHSGEEYTRDEDHIALIIELLGKVPRKLIVAGKYSKEFFTKKGDLKHITKLKPWGLFEVLVEKYEWSQEEAAGFTDFLLPMLELIPEKRATAAECLRHPWLNS	1.464	0.8168
DHX36 (protein, UniProt Q9H2U1 1-1008, looked up) ATP-dependent DNA/RNA …: MSYDYHQNWGRDGGPRSSGGGYGGGPAGGHGGNRGSGGGGGGGGGGRGGRGRHPGHLKGREIGMWYAKKQGQKNKEAERQERAVVHMDERREEQIVQLLNSVQAKNDKESEAQISWFAPEDHGYGTEVSTKNTPCSENKLDIQEKKLINQEKKMFRIRNRSYIDRDSEYLLQENEPDGTLDQKLLEDLQKKKNDLRYIEMQHFREKLPSYGMQKELVNLIDNHQVTVISGETGCGKTTQVTQFILDNYIERGKGSACRIVCTQPRRISAISVAERVAAERAESCGSGNSTGYQIRLQSRLPRKQGSILYCTTGIILQWLQSDPYLSSVSHIVLDEIHERNLQSDVLMTVVKDLLNFRSDLKVILMSATLNAEKFSEYFGNCPMIHIPGFTFPVVEYLLEDVIEKIRYVPEQKEHRSQFKRGFMQGHVNRQEKEEKEAIYKERWPDYVRELRRRYSASTVDVIEMMEDDKVDLNLIVALIRYIVLEEEDGAILVFLPGWDNISTLHDLLMSQVMFKSDKFLIIPLHSLMPTVNQTQVFKRTPPGVRKIVIATNIAETSITIDDVVYVIDGGKIKETHFDTQNNISTMSAEWVSKANAKQRKGRAGRVQPGHCYHLYNGLRASLLDDYQLPEILRTPLEELCLQIKILRLGGIAYFLSRLMDPPSNEAVLLSIRHLMELNALDKQEELTPLGVHLARLPVEPHIGKMILFGALFCCLDPVLTIAASLSFKDPFVIPLGKEKIADARRKELAKDTRSDHLTVVNAFEGWEEARRRGFRYEKDYCWEYFLSSNTLQMLHNMKGQFAEHLLGAGFVSSRNPKDPESNINSDNEKIIKAVICAGLYPKVAKIRLNLGKKRKMVKVYTKTDGLVAVHPKSVNVEQTDFHYNWLIYHLKMRTSSIYLYDCTEVSPYCLLFFGGDISIQKDNDQETIAVDEWIVFQSPARIAHLVKELRKELDILLQEKIESPHPVDWNDTKSRDCAVLSAIIDLIKTQEKATPRNFPPRFQDGYYS	1.434	0.06686
CCDC124 (protein, UniProt Q96CT7 1-223, looked up) Coiled-coil domain-containing …: MPKKFQGENTKSAAARARRAEAKAAADAKKQKELEDAYWKDDDKHVMRKEQRKEEKEKRRLDQLERKKETQRLLEEEDSKLKGGKAPRVATSSKVTRAQIEDTLRRDHQLREAPDTAEKAKSHLEVPLEENVNRRVLEEGSVEARTIEDAIAVLSVAEEAADRHPERRMRAAFTAFEEAQLPRLKQENPNMRLSQLKQLLKKEWLRSPDNPMNQRAVPFNAPK	1.402	0.7429
EIF5B (protein, UniProt O60841 1-1220, looked up) Eukaryotic translation …: MGKKQKNKSEDSTKDDIDLDALAAEIEGAGAAKEQEPQKSKGKKKKEKKKQDFDEDDILKELEELSLEAQGIKADRETVAVKPTENNEEEFTSKDKKKKGQKGKKQSFDDNDSEELEDKDSKSKKTAKPKVEMYSGSDDDDDFNKLPKKAKGKAQKSNKKWDGSEEDEDNSKKIKERSRINSSGESGDESDEFLQSRKGQKKNQKNKPGPNIESGNEDDDASFKIKTVAQKKAEKKERERKKRDEEKAKLRKLKEKEELETGKKDQSKQKESQRKFEEETVKSKVTVDTGVIPASEEKAETPTAAEDDNEGDKKKKDKKKKKGEKEEKEKEKKKGPSKATVKAMQEALAKLKEEEERQKREEEERIKRLEELEAKRKEEERLEQEKRERKKQKEKERKERLKKEGKLLTKSQREARARAEATLKLLQAQGVEVPSKDSLPKKRPIYEDKKRKKIPQQLESKEVSESMELCAAVEVMEQGVPEKEETPPPVEPEEEEDTEDAGLDDWEAMASDEETEKVEGNKVHIEVKENPEEEEEEEEEEEEDEESEEEEEEEGESEGSEGDEEDEKVSDEKDSGKTLDKKPSKEMSSDSEYDSDDDRTKEERAYDKAKRRIEKRRLEHSKNVNTEKLRAPIICVLGHVDTGKTKILDKLRHTHVQDGEAGGITQQIGATNVPLEAINEQTKMIKNFDRENVRIPGMLIIDTPGHESFSNLRNRGSSLCDIAILVVDIMHGLEPQTIESINLLKSKKCPFIVALNKIDRLYDWKKSPDSDVAATLKKQKKNTKDEFEERAKAIIVEFAQQGLNAALFYENKDPRTFVSLVPTSAHTGDGMGSLIYLLVELTQTMLSKRLAHCEELRAQVMEVKALPGMGTTIDVILINGRLKEGDTIIVPGVEGPIVTQIRGLLLPPPMKELRVKNQYEKHKEVEAAQGVKILGKDLEKTLAGLPLLVAYKEDEIPVLKDELIHELKQTLNAIKLEEKGVYVQASTLGSLEALLEFLKTSEVPYAGINIGPVHKKDVMKASVMLEHDPQYAVILAFDVRIERDAQEMADSLGVRIFSAEIIYHLFDAFTKYRQDYKKQKQEEFKHIAVFPCKIKILPQYIFNSRDPIVMGVTVEAGQVKQGTPMCVPSKNFVDIGIVTSIEINHKQVDVAKKGQEVCVKIEPIPGESPKMFGRHFEATDILVSKISRQSIDALKDWFRDEMQKSDWQLIVELKKVFEII	1.436	0.212
